These results are taken from IntAct's records for PubMed 9418872.

B1: Tyrosine-protein phosphatase non-receptor type 1 (Homo sapiens), P18031 (parent)
chain: MEMEKEFEQIDKSGSWAAIYQDIRHEASDFPCRVAKLPKNKNRNRYRDVSPFDHSRIKLHQEDNDYINASLIKMEEAQRSYILTQGPLPNTCGHFWEMVWEQKSRGVVMLNRVMEKGSLKCAQYWPQKEEKEMIFEDTNLKLTLISEDIKSYYTVRQLELENLTTQETREILHFHYTTWPDFGVPESPASFLNFLFKVRESGSLSPEHGPVVVHCSAGIGRSGTFCLADTCLLLMDKRKDPSSVDIKKVLLEMRKFRMGLIQTADQLRFSYLAVIEGAKFIMGDSSVQDQWKELSHEDLEPPPEHIPPPPRPPKRILEPHNGKCREFFPNHQWVKEETQEDKDCPIKEEKGSPLNAAPYGIESMSQDTEVRSRVVGGSLRGAQAASPAKGEPSLPEKDEDHALSYWKPFLVNMCVATVLTAGAYLCYRFLFNSNT
partner: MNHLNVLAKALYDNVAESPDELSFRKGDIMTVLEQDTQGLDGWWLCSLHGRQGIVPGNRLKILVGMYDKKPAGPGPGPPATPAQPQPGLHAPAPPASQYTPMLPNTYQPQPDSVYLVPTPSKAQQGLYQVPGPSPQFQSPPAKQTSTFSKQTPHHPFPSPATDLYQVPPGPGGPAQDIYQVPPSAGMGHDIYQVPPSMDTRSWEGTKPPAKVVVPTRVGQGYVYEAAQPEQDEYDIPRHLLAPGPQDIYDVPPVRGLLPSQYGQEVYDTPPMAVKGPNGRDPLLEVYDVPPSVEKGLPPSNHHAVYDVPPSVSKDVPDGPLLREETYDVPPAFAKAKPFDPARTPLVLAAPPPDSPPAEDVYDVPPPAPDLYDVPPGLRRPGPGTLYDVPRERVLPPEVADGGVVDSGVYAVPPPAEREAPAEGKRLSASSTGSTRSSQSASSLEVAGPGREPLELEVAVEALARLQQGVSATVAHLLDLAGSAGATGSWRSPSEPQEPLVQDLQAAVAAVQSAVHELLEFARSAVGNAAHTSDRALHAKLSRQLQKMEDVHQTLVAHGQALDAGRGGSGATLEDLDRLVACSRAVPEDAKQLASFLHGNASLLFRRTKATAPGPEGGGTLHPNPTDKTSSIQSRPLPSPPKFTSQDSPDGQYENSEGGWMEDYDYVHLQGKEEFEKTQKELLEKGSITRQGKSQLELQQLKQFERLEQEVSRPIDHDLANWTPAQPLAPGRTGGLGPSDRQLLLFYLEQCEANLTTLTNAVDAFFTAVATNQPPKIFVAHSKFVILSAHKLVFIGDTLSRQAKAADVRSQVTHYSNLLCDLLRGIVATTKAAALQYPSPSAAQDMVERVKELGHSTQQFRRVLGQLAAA
B2: Tyrosine-protein phosphatase non-receptor type 1 (Homo sapiens), P18031 (parent)
chain: B1 chain
B3: Tyrosine-protein phosphatase non-receptor type 1 (Homo sapiens), P18031 (parent)
chain: B1 chain
partner: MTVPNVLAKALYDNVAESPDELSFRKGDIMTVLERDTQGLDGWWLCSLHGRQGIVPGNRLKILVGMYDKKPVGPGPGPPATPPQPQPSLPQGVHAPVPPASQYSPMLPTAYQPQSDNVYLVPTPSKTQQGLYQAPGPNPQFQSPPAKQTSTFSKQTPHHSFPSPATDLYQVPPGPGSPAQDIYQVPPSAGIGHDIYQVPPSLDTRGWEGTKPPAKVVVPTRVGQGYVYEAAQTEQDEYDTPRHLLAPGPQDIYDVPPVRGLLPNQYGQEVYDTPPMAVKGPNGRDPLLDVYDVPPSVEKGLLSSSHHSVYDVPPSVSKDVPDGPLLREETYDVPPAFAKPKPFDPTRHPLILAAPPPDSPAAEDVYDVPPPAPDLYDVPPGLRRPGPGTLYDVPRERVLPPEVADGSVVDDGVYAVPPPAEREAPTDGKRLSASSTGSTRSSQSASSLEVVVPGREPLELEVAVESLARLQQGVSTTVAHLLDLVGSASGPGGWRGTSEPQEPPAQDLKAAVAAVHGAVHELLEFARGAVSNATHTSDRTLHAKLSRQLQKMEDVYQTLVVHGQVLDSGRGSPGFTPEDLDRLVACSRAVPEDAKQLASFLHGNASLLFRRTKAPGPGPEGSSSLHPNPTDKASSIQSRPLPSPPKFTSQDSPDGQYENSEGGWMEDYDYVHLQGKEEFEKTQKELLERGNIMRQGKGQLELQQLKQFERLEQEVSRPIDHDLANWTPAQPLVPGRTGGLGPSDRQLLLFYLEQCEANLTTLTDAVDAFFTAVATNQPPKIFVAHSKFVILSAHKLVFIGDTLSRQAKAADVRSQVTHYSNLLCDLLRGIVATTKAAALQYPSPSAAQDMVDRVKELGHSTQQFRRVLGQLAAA

The variants in one test derive from B1. The settings on record: with bcar1_human BCAR1, P56945.
As for P309A, the “effect of a mutation on the interaction” value is on record as “disrupting interaction”.
The same measure, in the same setting: the entry for P310A is “disrupting interaction”.

In another test the parent is B2. The settings on record: with paxi_mouse Pxn.
P309A: the “effect of a mutation on the interaction” value is “disrupting interaction”.
Same read-out and setting: the entry for P310A is “disrupting interaction”.

Variants of B2 are the subject of the next test. The settings on record: with fak1_mouse Ptk2, P34152.
Sequence of fak1_mouse Ptk2, P34152 (P34152 whole entry): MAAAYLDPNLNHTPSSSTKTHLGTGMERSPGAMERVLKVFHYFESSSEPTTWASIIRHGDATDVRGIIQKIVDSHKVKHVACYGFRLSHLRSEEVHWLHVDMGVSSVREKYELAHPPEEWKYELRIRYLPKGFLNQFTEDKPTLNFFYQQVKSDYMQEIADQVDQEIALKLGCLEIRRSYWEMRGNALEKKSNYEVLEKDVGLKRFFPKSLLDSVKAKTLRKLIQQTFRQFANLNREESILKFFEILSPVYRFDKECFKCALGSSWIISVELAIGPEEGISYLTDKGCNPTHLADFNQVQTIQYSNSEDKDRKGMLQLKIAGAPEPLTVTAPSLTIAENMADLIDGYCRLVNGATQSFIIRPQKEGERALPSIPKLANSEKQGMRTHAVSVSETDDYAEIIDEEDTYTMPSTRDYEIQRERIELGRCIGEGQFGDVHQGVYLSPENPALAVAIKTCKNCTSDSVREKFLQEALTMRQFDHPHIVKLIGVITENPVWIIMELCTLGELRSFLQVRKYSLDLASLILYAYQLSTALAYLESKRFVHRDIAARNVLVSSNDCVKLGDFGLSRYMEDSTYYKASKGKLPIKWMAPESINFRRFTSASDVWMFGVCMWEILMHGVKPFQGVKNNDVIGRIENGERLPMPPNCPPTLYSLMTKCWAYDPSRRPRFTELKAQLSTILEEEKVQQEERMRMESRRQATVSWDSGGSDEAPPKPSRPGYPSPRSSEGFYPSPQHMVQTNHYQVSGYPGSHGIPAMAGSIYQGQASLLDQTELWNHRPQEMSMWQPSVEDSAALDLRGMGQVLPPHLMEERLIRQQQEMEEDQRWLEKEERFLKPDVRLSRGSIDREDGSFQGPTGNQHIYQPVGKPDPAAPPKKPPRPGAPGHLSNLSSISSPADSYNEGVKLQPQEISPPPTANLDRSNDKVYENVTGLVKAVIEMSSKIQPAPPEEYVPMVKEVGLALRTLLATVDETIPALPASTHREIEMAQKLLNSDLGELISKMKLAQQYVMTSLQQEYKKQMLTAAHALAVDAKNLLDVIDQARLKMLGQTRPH
Regarding P309A, the “effect of a mutation on the interaction” value was “disrupting interaction”.
The same measure, in the same setting: the entry for P310A is “disrupting interaction”.

Variants of B2 are the subject of another test. The settings on record: with paxi_mouse Pxn. This is another data set of the same source.
Take C215S: the “effect of a mutation on the interaction” value is recorded as “disrupting interaction”.

In a further test the parent is B2. Particulars: with fak1_mouse Ptk2, P34152. This is another data set of the same source.
On to C215S, for which the “effect of a mutation on the interaction” value was “disrupting interaction”.

Variants of B3 are the subject of another test. The settings on record: with bcar1_mouse Bcar1, Q61140.
P309A: the “effect of a mutation on the interaction” value is reported as “disrupting interaction”.
The same measure, in the same setting: the entry for P310A is “disrupting interaction”.

In another test the parent is B3. Particulars: with bcar1_mouse Bcar1, Q61140. This is another data set of the same source.
Regarding C215S, the “effect of a mutation on the interaction” value was “disrupting interaction”.
